# B1: aMD4dY-Jun-cys-N11-SecM-GS3: c-Met binding cyclic peptide-leucine zipper fusion for ribosome display, SEQ ID NO: 71 (protein)
# chain: MAETCRQFNRRTHEVWNLDCGAAPAAPAPAAGGRIARLEEKVKTLKAQNSELASTANMLREQVAQLKQKVMNGCGGKDHLIHNHHKHEHAHAEHLFSTPVWISQAQGIRAGGSGSGS
# modifications: aMD4dY-Jun-cys-N11-SecM-GS3; DISULFID 5..20 Disulfide bridge between Cys-5 and Cys-20
# B2: EMP-PA8-cys-Jun: EMP-leucine zipper fusion, SEQ ID NO: 67 (protein)
# chain: MGGLYACHMGPMTWVCQPLRGAAPAAPAPAAGCGGRIARLEEKVKTLKAQNSELASTANMLREQVAQLKQKVMN
# modifications: EMP-PA8-cys-Jun; DISULFID 7..16 Disulfide bridge between Cys-7 and Cys-16
# B3: EMP-Jun-cys-N11-SecM-GS3: EMP-leucine zipper fusion for ribosome display, SEQ ID NO: 87 (protein)
# chain: MAETGGLYACHMGPMTWVCQPLRGAAPAAPAPAAGGRIARLEEKVKTLKAQNSELASTANMLREQVAQLKQKVMNGCGGKDHLIHNHHKHEHAHAEHLFSTPVWISQAQGIRAGGSGSGS
# modifications: EMP-Jun-cys-N11-SecM-GS3; DISULFID 10..19 Disulfide bridge between Cys-10 and Cys-19
# How the values were obtained:
# [1] = target: T1, Recombinant Human HGFR/c-MET Fc Chimera Protein (Homo sapiens, UniProt P08581); assay: Ribosome display enrichment on immobilized c-Met (Example 4); type: binding; details: starting DNA mix 1:50:50 (aMD4dY:TPO:EMP′ fusions); one round; FIGS. 15, 16
# T1 construct: purchased R&D systems 8614-MT-100
# T1 sequence (P08581 with tags, fused parts or gaps limits assumed): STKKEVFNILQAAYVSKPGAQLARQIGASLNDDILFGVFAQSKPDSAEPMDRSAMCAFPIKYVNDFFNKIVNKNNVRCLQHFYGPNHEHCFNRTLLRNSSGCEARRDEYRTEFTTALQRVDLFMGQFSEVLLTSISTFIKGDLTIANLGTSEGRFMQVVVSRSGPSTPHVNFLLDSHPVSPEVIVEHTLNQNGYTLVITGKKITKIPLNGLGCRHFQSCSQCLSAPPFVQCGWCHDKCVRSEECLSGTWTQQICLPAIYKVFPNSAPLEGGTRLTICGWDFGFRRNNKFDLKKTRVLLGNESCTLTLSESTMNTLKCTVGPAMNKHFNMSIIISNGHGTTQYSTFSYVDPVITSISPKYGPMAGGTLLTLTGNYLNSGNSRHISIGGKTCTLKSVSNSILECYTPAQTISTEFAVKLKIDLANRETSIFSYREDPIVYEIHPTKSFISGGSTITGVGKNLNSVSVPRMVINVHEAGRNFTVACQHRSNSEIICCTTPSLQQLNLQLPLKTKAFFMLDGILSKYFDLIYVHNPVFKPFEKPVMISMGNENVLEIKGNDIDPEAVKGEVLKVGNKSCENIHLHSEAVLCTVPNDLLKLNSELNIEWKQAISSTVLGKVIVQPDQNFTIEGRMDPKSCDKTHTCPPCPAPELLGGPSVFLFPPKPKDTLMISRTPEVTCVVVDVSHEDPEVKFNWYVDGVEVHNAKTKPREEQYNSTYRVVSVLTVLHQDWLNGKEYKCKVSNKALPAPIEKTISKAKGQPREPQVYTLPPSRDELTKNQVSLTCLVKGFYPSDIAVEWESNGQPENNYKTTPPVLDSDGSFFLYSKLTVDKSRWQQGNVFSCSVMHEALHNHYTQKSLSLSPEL
# T1 sequence (P08581 25-307 limits assumed, change not shown): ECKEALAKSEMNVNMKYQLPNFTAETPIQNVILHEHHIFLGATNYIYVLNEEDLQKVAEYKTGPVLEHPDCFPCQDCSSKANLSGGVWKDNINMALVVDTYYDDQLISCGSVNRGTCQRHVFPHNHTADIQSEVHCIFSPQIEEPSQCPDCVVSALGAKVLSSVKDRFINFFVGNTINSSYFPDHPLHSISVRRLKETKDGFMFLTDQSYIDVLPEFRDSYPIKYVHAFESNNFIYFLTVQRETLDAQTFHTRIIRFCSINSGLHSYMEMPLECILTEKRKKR
# Method: DNA transcription was carried out using T7 RNA polymerase. T7 RNA polymerase (Takara Bio, 2540A) and rNTPs (Promega, E6000) were used for transcription. 11 μL of ultrapure water, 2 μL of 10×T7 RNA polymerase buffer, 2 μL of 50 mM DTT, 2 μL of 25 mM rNTPs, 1 μL of T7 RNA polymerase, and 1 μL of DNA mix were mixed and reacted in a constant temperature bath at 37° C. for 6 hours. A 50 mM EDTA solution was then added. It was purified with RNA Clean & Concentrator 5 (ZYMO […], R1015) and made into a 2 μM mRNA mix.
# PURExpress ΔRF1,2,3 kit was used for translation expression of the prepared library. 2 μL of solution A, 1.5 μL of solution B, 1 μL of mRNA mix, and 0.5 μL of ultrapure water were mixed and cultured in a 37° C. constant temperature bath for 2 hours. After the reaction, the reaction vessel was placed on ice, and 20 μL of ice-cold 1×TBSM-T buffer (50 mM Tris-HCl, 150 mM NaCl, 50 mM MgCl2, 0.05% Tween 20) was added to the formed ribosome-cyclic peptide-leucine zipper fusion-mRNA complex. This complex reaction solution was used in (4-7) below.
# Immobilization of target molecules to magnetic beads was carried out. […]
# HGF-Erk-SRE pathway = assay: SRE luciferase reporter assay of cell-free translation products from ribosome display DNAs (Example 4); type: cell-based; details: HEK293E cells with SRE reporter; cell-free translation product at 25- to 625-fold dilution; HGF comparator; FIG. 16
# Method: For cell-free translation, to 20 ng of each DNA, 2.5 μL of Solution I, 0.25 μL of Solution II, 0.5 μL of Solution III, and 1.75 μL of water were added, and the mixture was incubated at 37° C. for 6 hours to carry out the translation reaction.
# Reporter assays were carried out as follows. To 25 μL of Opti-MEM medium (Thermo Fisher Scientific), 0.6 μL of Attractene Transfection Reagent (QIAGEN) was added and incubated at room temperature for 5 minutes. To the above mixed solution, a mixed solution of 25 μL of Opti-MEM and 1 μL of SRE reporter vector (QIAGEN) was added and incubated at room temperature for 20 minutes. This mixed solution was added to a 96-well plate, HEK293E cells were seeded thereon at 40,000 cells/well, and incubated overnight at 37° C. in a 5% CO2 incubator. After transfection, all the culture supernatant was removed, and 100 μL of Opti-MEM medium (evaluation basal medium), containing 0.5% FBS (Thermo Fisher Scientific), 1% non-essential amino acid solution (Thermo Fisher Scientific), and penicillin-streptomycin (Nacalai Tesque), was added thereto, which was cultured at 37° C. for 4 hours to starve the cells.
# To the evaluation basal medium, 0 to 100 ng/mL HGF was added, or the above cell-free expression reaction solution was added at a 25- to 625-fold dilution with respect to the medium, and 100 μL of the evaluation basal medium was added to the cells. The cells were stimulated by culturing overnight at 37° C. in a 5% CO2 incubator.
# Dual-Luciferase Reporter Assay System (Promega) was used for signal intensity detection. […] Activation of the HGF-Erk-SRE pathway was quantified by detecting Firefly luciferase luminescence from cell lysates with a plate reader. Subsequently, 50 μL of Glo & Stop reagent solution was added, and after 10 minutes, luminescence of Renilla luciferase, an internal standard, was detected to quantify the cell count. The signal activity of each sample was quantified as SRE activity=(luminescence intensity of Firefly luciferase)/(luminescence intensity of Renilla luciferase). […]
# EpoR = EpoR (Homo sapiens, UniProt P19235); assay: PathHunter eXpress EpoR-JAK2 Functional Assay of EMP-leucine zipper fusion dimer (Example 3); type: cell-based; details: diluted cell-free expression reaction solution; 3 hours stimulation; No DNA negative control; FIG. 14
# Sequence of EpoR (P19235 25-508): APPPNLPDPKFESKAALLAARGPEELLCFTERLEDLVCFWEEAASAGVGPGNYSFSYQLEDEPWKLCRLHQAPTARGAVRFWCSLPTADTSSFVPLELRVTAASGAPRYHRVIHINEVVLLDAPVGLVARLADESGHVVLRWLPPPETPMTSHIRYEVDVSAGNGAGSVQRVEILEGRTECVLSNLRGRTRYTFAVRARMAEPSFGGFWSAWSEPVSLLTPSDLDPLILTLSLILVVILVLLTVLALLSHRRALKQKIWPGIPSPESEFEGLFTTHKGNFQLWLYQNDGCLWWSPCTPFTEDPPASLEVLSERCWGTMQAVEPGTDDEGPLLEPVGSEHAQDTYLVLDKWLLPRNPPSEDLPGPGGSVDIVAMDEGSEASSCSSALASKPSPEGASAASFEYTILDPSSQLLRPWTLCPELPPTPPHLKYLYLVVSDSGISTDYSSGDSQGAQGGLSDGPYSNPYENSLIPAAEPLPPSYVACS
# Sequence of EpoR (O60674 whole entry partner, the tested form may be a part): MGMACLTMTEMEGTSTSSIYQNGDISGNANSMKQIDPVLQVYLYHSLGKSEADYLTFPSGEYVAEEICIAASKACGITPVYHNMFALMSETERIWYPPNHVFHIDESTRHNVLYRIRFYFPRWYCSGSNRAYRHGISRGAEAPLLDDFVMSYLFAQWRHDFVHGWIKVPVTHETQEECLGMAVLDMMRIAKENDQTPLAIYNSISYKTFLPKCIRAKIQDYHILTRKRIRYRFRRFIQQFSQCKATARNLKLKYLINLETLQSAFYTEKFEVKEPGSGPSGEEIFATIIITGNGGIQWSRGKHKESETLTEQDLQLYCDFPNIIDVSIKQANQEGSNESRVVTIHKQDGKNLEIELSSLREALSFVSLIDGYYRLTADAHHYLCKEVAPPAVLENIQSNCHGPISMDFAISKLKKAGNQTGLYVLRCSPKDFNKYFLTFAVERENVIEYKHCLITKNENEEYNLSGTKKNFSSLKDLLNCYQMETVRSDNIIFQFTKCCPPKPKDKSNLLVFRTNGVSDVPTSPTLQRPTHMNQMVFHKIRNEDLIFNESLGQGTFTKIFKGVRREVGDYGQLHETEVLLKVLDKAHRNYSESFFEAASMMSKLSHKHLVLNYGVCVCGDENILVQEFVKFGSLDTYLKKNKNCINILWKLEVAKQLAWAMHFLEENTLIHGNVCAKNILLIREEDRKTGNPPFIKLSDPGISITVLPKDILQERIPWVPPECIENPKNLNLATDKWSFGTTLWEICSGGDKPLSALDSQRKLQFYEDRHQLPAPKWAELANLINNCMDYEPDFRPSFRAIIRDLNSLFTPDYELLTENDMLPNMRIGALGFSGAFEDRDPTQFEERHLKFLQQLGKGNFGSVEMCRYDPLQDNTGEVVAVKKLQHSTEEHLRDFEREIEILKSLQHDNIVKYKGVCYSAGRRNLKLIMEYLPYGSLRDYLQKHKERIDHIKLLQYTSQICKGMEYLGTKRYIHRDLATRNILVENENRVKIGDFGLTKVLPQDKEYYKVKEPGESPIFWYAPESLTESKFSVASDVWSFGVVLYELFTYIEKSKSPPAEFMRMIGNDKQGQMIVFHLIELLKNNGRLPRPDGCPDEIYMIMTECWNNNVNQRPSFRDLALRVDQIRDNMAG
# Method: The ability of the EMP-leucine zipper fusion dimer to activate EpoR was assessed using PathHunter® eXpress EpoR-JAK2 Functional Assay Kit (DiscoveRx).
# Cells for EPO activity evaluation contained in the PathHunter® eXpress EpoR-JAK2 Functional Assay Kit were seeded in a 96-well plate and cultured for 24 hours at 37° C. under 5% CO2. A cell-free expression reaction solution containing the EMP-leucine zipper fusion were diluted and added to the cells. […] To the cells stimulated at room temperature for 3 hours, the prepared Substrate Reagent was added and incubated for 60 minutes. Chemiluminescence intensity was quantified with a Nivo plate reader (Perkin Elmer).
# [2] = target: T2, Recombinant Human Erythropoietin R Fc Chimera Protein (Homo sapiens, UniProt P19235); assay: Ribosome display enrichment on immobilized EPO receptor (Example 5); type: binding; details: starting DNA mix 1:50:50 (EMP:aMD4dY:TPO fusions); one round; FIGS. 17, 18
# T2 construct: purchased R&D systems 963-ER-50
# T2 sequence (P19235 with tags, fused parts or gaps limits assumed): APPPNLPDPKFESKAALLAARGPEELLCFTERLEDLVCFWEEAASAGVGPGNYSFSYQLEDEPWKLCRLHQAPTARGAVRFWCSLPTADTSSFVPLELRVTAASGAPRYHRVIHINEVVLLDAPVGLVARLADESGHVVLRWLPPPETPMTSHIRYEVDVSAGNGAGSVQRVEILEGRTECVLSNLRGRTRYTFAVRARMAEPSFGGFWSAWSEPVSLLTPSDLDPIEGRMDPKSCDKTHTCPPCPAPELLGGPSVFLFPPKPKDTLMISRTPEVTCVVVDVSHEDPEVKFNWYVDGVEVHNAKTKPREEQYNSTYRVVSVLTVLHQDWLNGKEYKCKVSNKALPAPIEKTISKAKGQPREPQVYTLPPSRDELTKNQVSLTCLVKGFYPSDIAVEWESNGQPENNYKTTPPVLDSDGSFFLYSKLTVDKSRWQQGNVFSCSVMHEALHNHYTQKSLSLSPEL
# Method: The DNA sequence of EMP-Jun-cys-N11-SecM-GS3 was prepared by PCR. Two types of DNA sequences, aMD4dY-Jun-cys-N11-SecM-GS3 and TPO-Jun-cys-N11-SecM-GS3, prepared in Example 4 were used. A DNA mix was prepared by mixing DNAs, EMP-Jun-cys-N11-SecM-GS3, aMD4dY-Jun-cys-N11-SecM-GS3, and TPO-Jun-cys-N11-SecM-GS3, at a ratio of 1:50:50.
# DNA transcription was carried out using T7 RNA polymerase. T7 RNA polymerase (Takara Bio, 2540A) and rNTPs (Promega, E6000) as well were used for transcription. 11 μL of ultrapure water, 2 μL of 10×T7 RNA polymerase buffer, 2 μL of 50 mM DTT, 2 μL of 25 mM rNTPs, 1 μL of T7 RNA polymerase, and 1 μL of DNA mix were mixed and reacted in a constant temperature bath at 37° C. for 6 hours. A 50 mM EDTA solution was then added. It was purified with RNA Clean & Concentrator 5 (ZYMO […], R1015) and made into a 2 μM mRNA mix.
# PURExpress ΔRF1,2,3 kit was used for translation expression of the prepared library. 2 μL of solution A, 1.5 μL of solution B, 1 μL of mRNA mix, and 0.5 μL of ultrapure water were mixed and cultured in a 37° C. constant temperature bath for 2 hours. […]
# Three types of DNAs, EMP-Jun-cys-N11-SecM-GS3, aMD4dY-Jun-cys-N11-SecM-GS3, and TPO-Jun-cys-N11-SecM-GS3, along with DNA mix and DNA mix2 were evaluated with 2100 Bioanalyzer (Agilent technologies). […]
molecule,measurement,setting,value
B1,enrichment in DNA mix2 after ribosome display against c-Met,[1],enriched
same,relative SRE reporter activity (relative receptor activity),HGF-Erk-SRE pathway,showed activity
B2,"ability to activate EpoR (relative receptor activity, chemiluminescence)",EpoR,activated EpoR
B3,enrichment in DNA mix2 after ribosome display against EPO receptor,[2],enriched

# Reference: US20240026343A1, “METHOD FOR SCREENING DIMERIZED CYCLIC PEPTIDE” (AJINOMOTO CO., INC., priority 2021, published 2024)
